Results: patent US12281340B2, “Method of producing N-acyl-amino group-containing compound” (AJINOMOTO CO., INC., priority 2018, dated 2025)

Experiment: Synthesis of N-capryloylamino acid using washed microbial cell suspension or microbial cell suspension expressing acylamino acid synthetase
Assay type: cell-based, E coli BL21(DE3)
Settings: UV 210 nm
Method: BL21(DE3)/pET-28a-AtGH3-6, BL21(DE3)/pET-28a-OsGH3-8, BL21(DE3)/pET-28a-AtGH3-5, and BL21(DE3)/pET-28a were inoculated to 100 mL of LB medium containing 25 mg/L of kanamycin in a Sakaguchi flask, respectively and cultured with shaking at 37° C. When OD610 reached 0.6, 1 mM IPTG was added, and culturing with shaking was continued at 15° C. for 24 hours.
BL21(DE3)/pET-28a-CfHP was inoculated to 100 mL of LB medium containing 25 mg/L of kanamycin in a Sakaguchi flask, and cultured with shaking at 37° C. When OD610 reached 0.2, 1 mM IPTG was added, and culturing with shaking was continued at 15° C. for 24 hours.
After completion of the culture, microbial cells were collected from 5 mL of the resulting culture medium by centrifugation and washed with 20 mM Tris-HCl (pH 7.6) followed by being suspended in 1 mL of 20 mM Tris-HCl (pH 7.6) to use as a washed microbial cell suspension.
After completion of the culture, 15 mL of the resulting culture medium was concentrated to 3 mL by centrifugation to use as a microbial cell suspension.
0.3 mL of a reaction solution containing 33.3 mM Tris-HCl, 3.3 mM amino acid, 3.3 mM sodium caprylate, 6.7 mM or 0 mM ATP, 6.7 mM MgCl2, 0.7 mM DTT, 30 μg of the microbial cell suspension (cell free extract solution, washed microbial suspension, microbial suspension), pH 8.0 was incubated at 25° C. for 24 hours. As the amino acid, L-Asp was used in AtGH3-6, OsGH3-8, AtGH3-5, and Gly or L-Ala was used in CfHP. After completion of the reaction, 0.8 mL of the reaction stop solution (1% (v/v) phosphoric acid, 75% (v/v) methanol) was added, and the mixture was filtrated through the filter followed by being subjected to the UPLC-MS analysis to detect a signal of a molecular weight corresponding to the N-capryloylamino acid. The condition for the UPLC-MS analysis is as described in Example 2. As a result of the UPLC-MS analysis, the signal of the molecular weight corresponding to the appropriate N-capryloylamino acid was confirmed in the reaction solution using the microbial cell suspension and the like shown in Table 8 below.
As a result of quantifying the produced N-acylamino acid by detection at UV 210 nm, when Gly was used as the substrate in CfHP, 2.8 mM, 2.2 mM and 2.6 mM N-capryloylamino acids were detected in the washed microbial cell suspension, the microbial cell suspension (in the presence of ATP) and the microbial cell suspension (in the absence of ATP), respectively. When L-Ala was used as the substrate in CfHP, 2.4 mM, 0.9 mM and 1.0 mM N-capryloylamino acids were detected in the washed microbial cell suspension, the microbial cell suspension (in the presence of ATP) and the microbial cell suspension (in the absence of ATP), respectively.

B1: CfHP: hypothetical protein from Cystobacter fuscus (GH3 protein), His-tagged (protein, listed as Cystobacter fuscus)
chain: MQAAGRRDKQRFIEQTRHVARVNVDTLRAILQHNRDTDFGRRHGFASLRTVEDFQRALPVSTYEPFRPYMERIARGEQNVLTADRVEYLGITSGTTGQRKLLPVSRPHLENMRRTMMIGRAVVTEKVPAARRPSRGMILMNAVLRERSEGGLLTGALTAISTHSMGRAASFAFTSPPEAFRLRKHADALYLHLLFGLRERELGTLMAPFASGLLDMVHLLERRGADLVDDIARGVLRPELDLEPEQRRLLQSRLLPDPERAREVSQALEQGPHGLLRRLWPRLAYVSSITGASFSLYTRQLTPYLEGVPLSAASYVSTEGILGVPLELEQAVYCLMVGMAFFEFIPERELDAESPTTLLPEQLVEGEAYEVVLTTQAGLYRYRLGDVVRIVGRYHEAPLMEFLYRRGALLNLMGEKTSEHAARLALEQALATEGLLPADYSVVEETETLPGRYALFVELQEGARPQGAPEQLSRALEEALCRTNPFYEVIRRSERLGAAQLHRVEPGTFQALRDVLVQRGASPTQVKVPRVVRDAELQGLLRQRRVTG
modifications: His-tag
notes: hypothetical protein from Cystobacter fuscus (GH3 protein), His-tagged
Gly as substrate, microbial cell suspension (in the absence of ATP)
  N-capryloylamino acid detected: 2.6 mM
Gly as substrate, microbial cell suspension (in the presence of ATP)
  N-capryloylamino acid detected: 2.2 mM
Gly as substrate, washed microbial cell suspension
  N-capryloylamino acid detected: 2.8 mM
L-Ala as substrate, microbial cell suspension (in the absence of ATP)
  N-capryloylamino acid detected: 1.0 mM
L-Ala as substrate, microbial cell suspension (in the presence of ATP)
  N-capryloylamino acid detected: 0.9 mM
L-Ala as substrate, washed microbial cell suspension
  N-capryloylamino acid detected: 2.4 mM
